# Measured values: paper PMC10540216, “Activity Guided Azide-methyllysine Photo-trapping for Substrate Profiling of Lysine Demethylases” (Journal of the American Chemical Society, 2023)
# B1: DSG1_HUMAN (protein, UniProt Q02413 50-1049, looked up)
# Desmoglein-1: EWIKFAAACREGEDNSKRNPIAKIHSDCAANQQVTYRISGVGIDQPPYGIFVINQKTGEINITSIVDREVTPFFIIYCRALNSMGQDLERPLELRVRVLDINDNPPVFSMATFAGQIEENSNANTLVMILNATDADEPNNLNSKIAFKIIRQEPSDSPMFIINRNTGEIRTMNNFLDREQYGQYALAVRGSDRDGGADGMSAECECNIKILDVNDNIPYMEQSSYTIEIQENTLNSNLLEIRVIDLDEEFSANWMAVIFFISGNEGNWFEIEMNERTNVGILKVVKPLDYEAMQSLQLSIGVRNKAEFHHSIMSQYKLKASAISVTVLNVIEGPVFRPGSKTYVVTGNMGSNDKVGDFVATDLDTGRPSTTVRYVMGNNPADLLAVDSRTGKLTLKNKVTKEQYNMLGGKYQGTILSIDDNLQRTCTGTININIQSFGNDDRTNTEPNTKITTNTGRQESTSSTNYDTSTTSTDSSQVYSSEPGNGAKDLLSDNVHFGPAGIGLLIMGFLVLGLVPFLMICCDCGGAPRSAAGFEPVPECSDGAIHSWAVEGPQPEPRDITTVIPQIPPDNANIIECIDNSGVYTNEYGGREMQDLGGGERMTGFELTEGVKTSGMPEICQEYSGTLRRNSMRECREGGLNMNFMESYFCQKAYAYADEDEGRPSNDCLLIYDIEGVGSPAGSVGCCSFIGEDLDDSFLDTLGPKFKKLADISLGKESYPDLDPSWPPQSTEPVCLPQETEPVVSGHPPISPHFGTTTVISESTYPSGPGVLHPKPILDPLGYGNVTVTESYTTSDTLKPSVHVHDNRPASNVVVTERVVGPISGADLHGMLEMPDLRDGSNVIVTERVIAPSSSLPTSLTIHHPRESSNVVVTERVIQPTSGMIGSLSMHPELANAHNVIVTERVVSGAGVTGISGTTGISGGIGSSGLVGTSMGAGSGALSGAGISGGGIGLSSLGGTASIGHMRSSSDHHFNQTIGSASPSTARSRITKYSTVQYSK
# B2: KDM4C_HUMAN (protein, UniProt Q9H3R0 1-1056, looked up)
# Lysine-specific demethylase 4C: MEVAEVESPLNPSCKIMTFRPSMEEFREFNKYLAYMESKGAHRAGLAKVIPPKEWKPRQCYDDIDNLLIPAPIQQMVTGQSGLFTQYNIQKKAMTVKEFRQLANSGKYCTPRYLDYEDLERKYWKNLTFVAPIYGADINGSIYDEGVDEWNIARLNTVLDVVEEECGISIEGVNTPYLYFGMWKTTFAWHTEDMDLYSINYLHFGEPKSWYAIPPEHGKRLERLAQGFFPSSSQGCDAFLRHKMTLISPSVLKKYGIPFDKITQEAGEFMITFPYGYHAGFNHGFNCAESTNFATVRWIDYGKVAKLCTCRKDMVKISMDIFVRKFQPDRYQLWKQGKDIYTIDHTKPTPASTPEVKAWLQRRRKVRKASRSFQCARSTSKRPKADEEEEVSDEVDGAEVPNPDSVTDDLKVSEKSEAAVKLRNTEASSEEESSASRMQVEQNLSDHIKLSGNSCLSTSVTEDIKTEDDKAYAYRSVPSISSEADDSIPLSSGYEKPEKSDPSELSWPKSPESCSSVAESNGVLTEGEESDVESHGNGLEPGEIPAVPSGERNSFKVPSIAEGENKTSKSWRHPLSRPPARSPMTLVKQQAPSDEELPEVLSIEEEVEETESWAKPLIHLWQTKSPNFAAEQEYNATVARMKPHCAICTLLMPYHKPDSSNEENDARWETKLDEVVTSEGKTKPLIPEMCFIYSEENIEYSPPNAFLEEDGTSLLISCAKCCVRVHASCYGIPSHEICDGWLCARCKRNAWTAECCLCNLRGGALKQTKNNKWAHVMCAVAVPEVRFTNVPERTQIDVGRIPLQRLKLKCIFCRHRVKRVSGACIQCSYGRCPASFHVTCAHAAGVLMEPDDWPYVVNITCFRHKVNPNVKSKACEKVISVGQTVITKHRNTRYYSCRVMAVTSQTFYEVMFDDGSFSRDTFPEDIVSRDCLKLGPPAEGEVVQVKWPDGKLYGAKYFGSNIAHMYQVEFEDGSQIAMKREDIYTLDEELPKRVKARFSTASDMRFEDTFYGADIIQGERKRQRVLSSRFKNEYVADPVYRTFLKSSFQKKCQKRQ
# B3: THIO_HUMAN (protein, UniProt P10599 2-105, looked up)
# Thioredoxin: VKQIESKTAFQEALDAAGDKLVVVDFSATWCGPCKMIKPFFHSLSEKYSNVIFLEVDVDDCQDVASECEVKCMPTFQFFKKGQKVGEFSGANKEKLEATINELV
# B4: MPCP_HUMAN (protein, UniProt Q00325 50-362, looked up)
# Solute carrier family 25 …: AVEEQYSCDYGSGRFFILCGLGGIISCGTTHTALVPLDLVKCRMQVDPQKYKGIFNGFSVTLKEDGVRGLAKGWAPTFLGYSMQGLCKFGFYEVFKVLYSNMLGEENTYLWRTSLYLAASASAEFFADIALAPMEAAKVRIQTQPGYANTLRDAAPKMYKEEGLKAFYKGVAPLWMRQIPYTMMKFACFERTVEALYKFVVPKPRSECSKPEQLVVTFVAGYIAGVFCAIVSHPADSVVSVLNKEKGSSASLVLKRLGFKGVWKGLFARIIMIGTLTALQWFIYDSVKVYFRLPRPPPPEMPESLKKKLGLTQ
# B5: KDM4A_HUMAN (protein, UniProt O75164 2-1064, looked up)
# Lysine-specific demethylase 4A: ASESETLNPSARIMTFYPTMEEFRNFSRYIAYIESQGAHRAGLAKVVPPKEWKPRASYDDIDDLVIPAPIQQLVTGQSGLFTQYNIQKKAMTVREFRKIANSDKYCTPRYSEFEELERKYWKNLTFNPPIYGADVNGTLYEKHVDEWNIGRLRTILDLVEKESGITIEGVNTPYLYFGMWKTSFAWHTEDMDLYSINYLHFGEPKSWYSVPPEHGKRLERLAKGFFPGSAQSCEAFLRHKMTLISPLMLKKYGIPFDKVTQEAGEFMITFPYGYHAGFNHGFNCAESTNFATRRWIEYGKQAVLCSCRKDMVKISMDVFVRKFQPERYKLWKAGKDNTVIDHTLPTPEAAEFLKESELPPRAGNEEECPEEDMEGVEDGEEGDLKTSLAKHRIGTKRHRVCLEIPQEVSQSELFPKEDLSSEQYEMTECPAALAPVRPTHSSVRQVEDGLTFPDYSDSTEVKFEELKNVKLEEEDEEEEQAAAALDLSVNPASVGGRLVFSGSKKKSSSSLGSGSSRDSISSDSETSEPLSCRAQGQTGVLTVHSYAKGDGRVTVGEPCTRKKGSAARSFSERELAEVADEYMFSLEENKKSKGRRQPLSKLPRHHPLVLQECVSDDETSEQLTPEEEAEETEAWAKPLSQLWQNRPPNFEAEKEFNETMAQQAPHCAVCMIFQTYHQVEFGGFNQNCGNASDLAPQKQRTKPLIPEMCFTSTGCSTDINLSTPYLEEDGTSILVSCKKCSVRVHASCYGVPPAKASEDWMCSRCSANALEEDCCLCSLRGGALQRANDDRWVHVSCAVAILEARFVNIAERSPVDVSKIPLPRFKLKCIFCKKRRKRTAGCCVQCSHGRCPTAFHVSCAQAAGVMMQPDDWPFVVFITCFRHKIPNLERAKGALQSITAGQKVISKHKNGRFYQCEVVRLTTETFYEVNFDDGSFSDNLYPEDIVSQDCLQFGPPAEGEVVQVRWTDGQVYGAKFVASHPIQMYQVEFEDGSQLVVKRDDVYTLDEELPKRVKSRLSVASDMRFNEIFTEKEVKQEKKRQRVINSRYREDYIEPALYRAIME
# B6: ADT2_HUMAN (protein, UniProt P05141 1-298, looked up)
# ADP/ATP translocase 2: MTDAAVSFAKDFLAGGVAAAISKTAVAPIERVKLLLQVQHASKQITADKQYKGIIDCVVRIPKEQGVLSFWRGNLANVIRYFPTQALNFAFKDKYKQIFLGGVDKRTQFWLYFAGNLASGGAAGATSLCFVYPLDFARTRLAADVGKAGAEREFRGLGDCLVKIYKSDGIKGLYQGFNVSVQGIIIYRAAYFGIYDTAKGMLPDPKNTHIVISWMIAQTVTAVAGLTSYPFDTVRRRMMMQSGRKGTDIMYTGTLDCWRKIARDEGGKAFFKGAWSNVLRGMGGAFVLVLYDEIKKYT
# B7: CPSF1_HUMAN (protein, UniProt Q10570 1-1443, looked up)
# Cleavage and polyadenylation …: MYAVYKQAHPPTGLEFSMYCNFFNNSERNLVVAGTSQLYVYRLNRDAEALTKNDRSTEGKAHREKLELAASFSFFGNVMSMASVQLAGAKRDALLLSFKDAKLSVVEYDPGTHDLKTLSLHYFEEPELRDGFVQNVHTPRVRVDPDGRCAAMLVYGTRLVVLPFRRESLAEEHEGLVGEGQRSSFLPSYIIDVRALDEKLLNIIDLQFLHGYYEPTLLILFEPNQTWPGRVAVRQDTCSIVAISLNITQKVHPVIWSLTSLPFDCTQALAVPKPIGGVVVFAVNSLLYLNQSVPPYGVALNSLTTGTTAFPLRTQEGVRITLDCAQATFISYDKMVISLKGGEIYVLTLITDGMRSVRAFHFDKAAASVLTTSMVTMEPGYLFLGSRLGNSLLLKYTEKLQEPPASAVREAADKEEPPSKKKRVDATAGWSAAGKSVPQDEVDEIEVYGSEAQSGTQLATYSFEVCDSILNIGPCANAAVGEPAFLSEEFQNSPEPDLEIVVCSGHGKNGALSVLQKSIRPQVVTTFELPGCYDMWTVIAPVRKEEEDNPKGEGTEQEPSTTPEADDDGRRHGFLILSREDSTMILQTGQEIMELDTSGFATQGPTVFAGNIGDNRYIVQVSPLGIRLLEGVNQLHFIPVDLGAPIVQCAVADPYVVIMSAEGHVTMFLLKSDSYGGRHHRLALHKPPLHHQSKVITLCLYRDLSGMFTTESRLGGARDELGGRSGPEAEGLGSETSPTVDDEEEMLYGDSGSLFSPSKEEARRSSQPPADRDPAPFRAEPTHWCLLVRENGTMEIYQLPDWRLVFLVKNFPVGQRVLVDSSFGQPTTQGEARREEATRQGELPLVKEVLLVALGSRQSRPYLLVHVDQELLIYEAFPHDSQLGQGNLKVRFKKVPHNINFREKKPKPSKKKAEGGGAEEGAGARGRVARFRYFEDIYGYSGVFICGPSPHWLLVTGRGALRLHPMAIDGPVDSFAPFHNVNCPRGFLYFNRQGELRISVLPAYLSYDAPWPVRKIPLRCTAHYVAYHVESKVYAVATSTNTPCARIPRMTGEEKEFETIERDERYIHPQQEAFSIQLISPVSWEAIPNARIELQEWEHVTCMKTVSLRSEETVSGLKGYVAAGTCLMQGEEVTCRGRILIMDVIEVVPEPGQPLTKNKFKVLYEKEQKGPVTALCHCNGHLVSAIGQKIFLWSLRASELTGMAFIDTQLYIHQMISVKNFILAADVMKSISLLRYQEESKTLSLVSRDAKPLEVYSVDFMVDNAQLGFLVSDRDRNLMVYMYLPEAKESFGGMRLLRRADFHVGAHVNTFWRTPCRGATEGLSKKSVVWENKHITWFATLDGGIGLLLPMQEKTYRRLLMLQNALTTMLPHHAGLNPRAFRMLHVDRRTLQNAVRNVLDGELLNRYLYLSTMERSELAKKIGTTPDIILDDLLETDRVTAHF
# Test system: KDM4A-I71AzF
# Assay: CASI: photo-crosslinking with HEK293T cell extracts, StrepTactin enrichment and LC-MS/MS proteomics;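 note: lysates from HEK293T cells pretreated with a KDM4 inhibitor to raise proteome methylation, affinity-purified after ±UV, gel-resolved, trypsin-digested, with exclusive unique peptides per protein averaged per condition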
# Type: binding, human
# Settings: sheet "Final results but with 0.01"
row,Molecule,Fold change (+UV/-UV)
1,B1,2
2,B2,1.333
3,B3,0.5
4,B4,1
5,B5,1.184
6,B6,0.8333
7,B7,0.6923
